Where no end group is shown, it is not given here.
Tests used:
Experiment in all cases: ITC
[1] = target: BRD2_(bromo2) domain (amino acids 455–347) (UniProt P25440 347-455)
[2] = target: BRD2_(bromo1) (amino acids 73–194) (UniProt P25440 73-194)
[3] = target: BRD3_(bromo1) (amino acids 24–144) (UniProt Q15059 24-144)
[4] = target: BRD3_(bromo2) domain (amino acids 306–416) (UniProt Q15059 306-416)
[5] = target: Bromo1-linker(GGS)5-Bromo2 of BRD4 (UniProt O60885 54-168; O60885 351-457)

Chain of BRD3_(bromo1) (amino acids 24–144) (Q15059 24-144): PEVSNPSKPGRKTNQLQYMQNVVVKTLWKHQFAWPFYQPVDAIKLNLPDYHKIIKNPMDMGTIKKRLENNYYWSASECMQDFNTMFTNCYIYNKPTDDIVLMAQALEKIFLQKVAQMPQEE
Chain of BRD2_(bromo1) (amino acids 73–194) (P25440 73-194): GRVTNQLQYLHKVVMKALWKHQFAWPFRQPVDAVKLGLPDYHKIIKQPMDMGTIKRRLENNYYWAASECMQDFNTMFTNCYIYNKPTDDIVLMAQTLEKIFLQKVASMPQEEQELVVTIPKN
Chain of BRD2_(bromo2) domain (amino acids 455–347) (P25440 347-455): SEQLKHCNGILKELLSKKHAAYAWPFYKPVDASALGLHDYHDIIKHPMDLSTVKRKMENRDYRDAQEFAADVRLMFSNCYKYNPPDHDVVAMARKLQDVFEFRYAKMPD
Chain of BRD3_(bromo2) domain (amino acids 306–416) (Q15059 306-416): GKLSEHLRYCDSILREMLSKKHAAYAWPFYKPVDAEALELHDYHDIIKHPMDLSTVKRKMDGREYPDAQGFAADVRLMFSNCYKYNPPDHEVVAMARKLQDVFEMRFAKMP

Kd [1] | Kd [2] | Kd [3] | Kd [4] | Kd [5] | Binder
2 mM | 2.6 mM | 1.5 mM | 1.8 mM |  | AGGK(Ac)AGK(Ac)DSGK(Ac)AKTK [tri-acetylated H2A.Z (1–15) K4acK7acK11ac peptide]
 |  |  |  | 350 µM | AGGK(Ac)AGK(Ac)DSGK(Ac)AKTKC (also: cross-linked via C-terminal cysteine) [H2A.ZK4ac7ac11ac peptides cross-linked by a C-terminal cysteine]

From PMC9033776 (2022)
